Test results from US20260167679A1, “FUSION PROTEIN TARGETING MITOCHONDRIA, METHOD OF MAKING AND USE THEREOF” (UNIVERSITY OF ROCHESTER, priority 2020, published 2026).

How the values were obtained:
[1] = system: isolated C. elegans mitochondria; test: Mitochondrial O2 consumption (Clark-type electrode); format: biochemical, Caenorhabditis elegans; conditions: isolated mitochondria fueled with substrates, mtON activated
Method: O2 consumption was measured using a Clark-type O2 electrode (S1 electrode disk, DW2/2 electrode chamber and Oxy-Lab control unit, Hansatech Instruments, Norfolk UK) at 25° C. Isolated mitochondria were stirred in MRB at 1 mg/ml with 1 mg/ml fat-free BSA. Substrates and inhibitors were added by syringe port (100 μM ADP, 2 μM rotenone, 5 mM succinate). Given excess succinate as substrate for ETC respiration, we measured the amount of O2 required to convert 50 nmol of ADP to ATP and established a baseline for comparison. To test mtON activity, mitochondria were illuminated as in the ATP measurement, for 1, 5, or 10 min in the presence of ADP without succinate to allow for mtON conversion of ADP to ATP. Any remaining ADP was then converted using 02-dependent ETC respiration upon succinate addition. Slopes were calculated from plots of O2 concentration versus time to give rates of 02 consumption during ADP respiration, ADP+succinate respiration, and respiration after ADP had been entirely consumed. The intersections of these three rates were used to calculate total amount of O2 consumed during ADP+succinate respiration. Light activation of mitochondria (XCite LED, 0.02 mW/mm^2) during ADP respiration alone was carried out for differing lengths of time to test the ability of mtON to drive ADP consumption before succinate was added. […]

C. elegans [2] = test: Lifespan of mtON-expressing worms; format: in vivo, Caenorhabditis elegans
From the text: Light treatment began at day 1 of adulthood for all experiments, a, Survival curves of mtON-expressing animals (extrachromosomal array). […] One-way ANOVA with Tukey's test; n=30 animals for day 4 conditions and 40 animals for day 10. […] The dotted arrow represents the molecular mechanisms to be investigated that link Δψm to aged physiology.
A) survival curve with the same conditions as FIG. 15B, but with light intensity (0.005 mW/cm2) below the threshold for mtON activation (0.01 mW/cm2). […] B) Survival curves of mtON-expressing animals versus mtON-expressing animals in a long-lived genetic background containing a constitutively active AMPK mutation.
Strain APW32 expresses mtON as an extrachromosomal array (mtON ext. chr. array), and strain APW273 expresses mtON in single copy through CRISPR/Cas9 genome integration (mtON CRISPR). See methods section for genotype details. Light intensity was varied to maintain temperature as best as possible, and proximal temperature readings directly adjacent to assay plates are reported to show local temperature variability from different incubators and from different light sources. All incubators were set to 20° C.

[3] = system: mitochondria from HEK293T cells; test: TMRE membrane potential of mitochondria isolated from HEK293T cells; format: biochemical; conditions: 540-600 nm light, absence of succinate
From the text: Stimulation of mtON with light results in polarization of the mitochondrial inner membrane. To determine whether mtON reaches the inner mitochondrial membrane in the correct orientation and to confirm the functional responsiveness of mtON, the study measured the mitochondrial membrane potential (Dym) using TMRE. The study first isolated mitochondria from HEK293T cells expressing mtON and treated them with succinate, a complex II ETC substrate, to generate a maximal mitochondrial membrane potential as a positive control (FIG. 9, panel D).
Based on this model, light stimulation of mtON results in the polarization of the mitochondrial inner membrane. To determine whether mtON reaches the inner mitochondrial membrane in the correct orientation and to confirm the functional responsiveness of mtON, the mitochondrial inner membrane potential (Δψm) was measured using tetramethylrhodamine, ethyl ester (TMRE). TMRE is a lipophilic cationic dye that accumulates in the mitochondrial matrix proportional to the mitochondrial membrane potential. First, mitochondria were isolated from HEK293T cells expressing mtON and treated them with succinate, a substrate for the ETC (complex II), to induce a maximal mitochondrial membrane potential as a positive control.

HEK293T cells = test: Luciferase-based ATP assay in HEK293T cells; format: cell-based; conditions: 590 nm light, with or without 2-DG, vs cells in the dark
Method: (A) HEK293T cells expressing mtOn or GFP were illuminated with 590 nm light for 2 hours, followed by a luciferase-based ATP assay. (B) Same set-up as in (A), except HEK293T cells were treated with 10 mM 2-DG for 2 hours prior to illumination. (C) Activated CD8+ T cells were sorted based on GFP expression. GFP negative cells were used as the mock control. CD8+ T cells received 590 nm light for 30 minutes, followed by a luciferase-based ATP assay. All data shown as mean±SEM and analyzed by an unpaired t-test (n=4-7).
To test whether mitochondrial polarization driven by light-activated proton transport leads to enhanced ATP production (FIG. 9, panel A), the study transfected HEK293T cells and mouse CD8+ T cells with mtON, illuminated the cells (590±10 nm, 0.32 mW/mm^2 at 1 Hz), and immediately lysed them to detect ATP. 2-Deoxy-D-glucose (2-DG), a glucose analog, was used to inhibit glycolysis and thus mimic the glucose-deficient TME.
To test whether the mitochondrial polarization driven by light-activated proton transport leads to enhanced ATP production, we transfected HEK293T cells and mouse CD8+T cells with mtON, illuminated (590±10 nm, 0.32 mW/mm^2 at 1 Hz) them, and immediately lysed to detect ATP. 2-Deoxy-D-glucose (2-DG), a glucose analog, was used to inhibit glycolysis and thus mimic the glucose-deficient tumor microenvironment.

C. elegans [4] = test: Healthspan: mobility on solid media and in liquid with age; format: in vivo, Caenorhabditis elegans
From the text: Light treatment began at day 1 of adulthood for all experiments, a, Survival curves of mtON-expressing animals (extrachromosomal array). […] One-way ANOVA with Tukey's test; n=30 animals for day 4 conditions and 40 animals for day 10. […] One-way ANOVA with Tukey's test, day 10 no ATR light versus day 10 ATR light; P=0.002, all other significant comparisons, P=0.0001; n=32, 32, 40 and 40 animals for each violin from left to right. Data are median±quartiles. f, Model showing effects of mtON activation in vivo. The dotted arrow represents the molecular mechanisms to be investigated that link Δψm to aged physiology.

B1: mtON: fusion of the 187 N-terminal amino acids of mouse IMMT1 to the light-activated proton pump (Mac) from Leptosphaeria maculans (protein)
chain: MLRACQLSGVTVAAQSCLCGKFVLRPLRPCRRYSTSSSSGLTAGKIAGAGLLFVGGGIGGTILYAKWDSHFRESVEKTIPYSDKLFGMVLGSAPYTVPLPKKPVQSGPLKISSVSEVMKDSKLPVAQSQKTKGDTPASAASTGAAQIISAAGDTLSVPAPAVQHEDTIKTECPNTNEGKSTSETTEEPAGLIVDQFEEVLMKTSQLFPLPTATQSAQPTHVAPVPTVLPDTPIYETVGDSGSKTLWVVFVLMLIASAAFTALSWKIPVNRRLYHVITTIITLTAALSYFAMATGHGVALNKIVIRTQHDHVPDTYETVYRQVYYARYIDWAITTPLLLLDLGLLAGMSGAHIFMAIVADLIMVLTGLFAAFGSEGTPQKWGWYTIACIAYIFVVWHLVLNGGANARVKGEKLRSFFVAIGAYTLILWTAYPIVWGLADGARKIGVDGEIIAYAVLDVLAKGVFGAWLLVTHANLRESDVELNGFWANGLNREGAIRIGEDDGAR
modifications: Synthetic Complete mtON fusion protein sequence
oxygen needed to make ATP [1]: decreased reliance on oxygen to make ATP
lifespan (C. elegans [2]; CRISPR insertion, vs light control): significantly extended lifespan compared to the light control
lifespan (C. elegans [2]; extrachromosomal array, +ATR+light from day 1 of adulthood): significantly extended lifespan
light intensity threshold for mtON activation (C. elegans [2]; in vivo): 0.01 mW/cm2
lifespan (C. elegans [2]; light below the threshold to activate mtON (0.005 mW/cm2)): not extended
lifespan (C. elegans [2]; long-lived worms with constitutively active AMPK signaling): further increased lifespan
lifespan extension in presence of FCCP (C. elegans [2]; mtON activation plus mitochondrial uncoupler FCCP): sensitive
lifespan (C. elegans [2]; mtON activation throughout life vs control populations): significant increase in lifespan
mitochondrial membrane potential (TMRE) [3]: sufficient to rescue the mitochondrial membrane potential
ATP (HEK293T cells): significant increase in ATP
locomotion on solid media (C. elegans [4]; day 4 and day 10, mtON activation): did not affect locomotion
mobility in liquid with age (C. elegans [4]; day 10, mtON activation): improved mobility
